Test results: the supplement of paper PMC9170038

Test system: MS2 coat protein
Assay: apparent KD of MS2 coat protein; designed switch direction (-1 OFF switch, 1 ON switch): -1; higher = weaker reporter binding
Summary of the method: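 Apparent KD, taken as the median over clusters for each design, was obtained by curve-fitting normalised cluster fluorescence. Designed RNA switches had been transcribed on Illumina chips by stalled E. coli RNA polymerase and titrated with SNAP-549-labelled MS2 coat protein, doubling from 0.7 or 1.5 nM to 3 µM.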

[1] = input ligand: microRNA oligo, concentration not stated
[2] = Eterna round: R95, input ligand: microRNA oligo, concentration not stated
[3] = Eterna round: R95, input ligand: FMN 200 uM
[4] = Eterna round: R95, input ligand: none

Sequence	apparent KD of MS2 coat protein (input ligand: FMN 200 uM) [nM]	apparent KD of MS2 coat protein (input ligand: none) [nM]	apparent KD of MS2 coat protein [1] [nM]	apparent KD of MS2 coat protein [2] [nM]	apparent KD of MS2 coat protein [3] [nM]	apparent KD of MS2 coat protein [4] [nM]
AACACACAUGAGGAUCACCCAUGUGAGGAUAUCGUCGAGGUUGUAAUGCCAACCGUGACGAGAAGGCACUUGGG [Exclusion 1 (Mod 3.1 solution 40 by Eternabot)] (Eterna round: R97, puzzle: Exclusion 1)	44.4	282	–	–	–	–
AGAGUGCUGCGAGGAUAUACAUGAGGAUCACCCAUGUGGUCCUGUGAGGGAAAACCUCACAGGAUGUAGAAGGCGCAGUACUCA [Mat - Exclusion NG 2 - Mod of JL - D47] (Eterna round: R96, puzzle: Exclusion NG 2)	53.2	16.3	10.9	–	–	–
UGUUGUCGCGCAGGAUAUGAGGAUCACCCAUAUGGAGGAUAUGAAAAGAAGGUUCUGAGGAUCACCCAGAAGGGCGGGACAACU [pwkr exNG2 2xF5 2xFMN.20] (Eterna round: R96, puzzle: Exclusion NG 2)	261	60.6	43	–	–	–
CUUCACGGAGGAUAUGCGGGCUGCGACAUGAGGAUCACCCAUGUUUAUGGAGCUUGGCAUGCAGAAGGCCGGGAGC [Eternabot (L2) Solution 19] (Eterna round: R97, puzzle: Exclusion 5)	9.81	10.6	–	–	–	–
GCAUGUUAUGUCAGGAUAUACCUAUGGAUACAUAGGUAGAAGGGACAUGAGGAUCACCCAUGUCCUAAUCAUGC [Fiskers BMX 4 - 23] (puzzle: Brourd's mod of Exclusion 4)	–	–	–	12.5	–	–
AAAGGUGAGUAGGAUAUCCACGCACGAAUAAAGGGAGAAGGACUUACAUGAGGAUCACCCAUGUAAGGUGGUAA [Orte] (puzzle: Exclusion 6)	–	–	–	14.3	17.1	13.8
CCUAUGUGAGGAUAUGUCUGGUCUUCUUUUAUUUUUUACAGACAGAAGGCACAUGAGGAUCACCCAUGUCAGAC [Ex4 - 3 - 48] (puzzle: Exclusion 4)	–	–	–	23	–	–
GGCACACAUGAGGAUCACCCAUGUGAGGAUAUGUGGCGAUCGUCGAAAGACGAUAGCCACAGAAGGCACAGGCC [Eli x1 4.24] (Eterna round: R97, puzzle: Exclusion 1)	21.4	17.8	–	–	–	–
UCUUAUUGAGGAUAUACAGAUUAUUACAUGAGGAUCACCCAUGUUCUUCAAUGUAUAUAUGUAGAAGGCAGAGGAA [Mat - Exclusion 5 - JL Mod - D11] (Eterna round: R97, puzzle: Exclusion 5)	112	67.4	–	–	–	–
AUUUUGAAUGUAAGGAUAUCAAUACGAGGGCGUGAUGAGAAGGUACAUGAGGAUCACCCAUGUGGCGAGCUCAC [BmEX4 B.24] (Eterna round: R97, puzzle: Brourd's mod of Exclusion 4)	33.5	23.7	–	–	–	–
GUGGAGUAAGGAUAUACAUGAGGAUCACCCAUGUGAGGGUAUGAGAAGGGAAUGAGAGGUAGAAGGUACGAGGG [JR_Exclu3_Sub070] (puzzle: Exclusion 3)	–	–	–	111	–	–
CAUUACUACAAGCUUGGGAACAUGAGGAUCACCCAUGUUCGUCUUAUUGAUCUAGGUACGCUGACGUACCUAGAUCU [JL-sv1-2.24 Brourd mod] (puzzle: Sensor v3, turn-off variant 1)	–	–	–	21.7	14.3	13.3
GGAGGACGAGCAGGAUAUUUUUACAUGAGGAUCACCCAUGUGUAAUCAGGGUAAUCCUCCACCGAAAAGAAGGGUUCGGAAGAA [Mat - Exclusion NG 2 - Mod of JL - D84] (Eterna round: R96, puzzle: Exclusion NG 2)	18.1	70.6	9.17	–	–	–
GUGUUGCGAGGAUAUAUAAGGAAAUGUUCUUAGGAUAUGGAACAUGAGGAUCACCCAUGUAGAAGGUGCAUAUC [JR_Ex2_Sub048] (Eterna round: R97, puzzle: Exclusion 2)	48.1	38.7	–	–	–	–
AGUAUGCGGCAGGAUAUCCAUCCGCGAAAAGGUGGAGAAGGGCUGACAUGAGGAUCACCCAUGUGCGUCCUGUA [salish99_ex6_r4_030] (Eterna round: R97, puzzle: Exclusion 6)	25.3	17.7	–	–	–	–
AAGGUGUUAGGAUAUCGGAGGUUGAGGCAGACGGGAAUUUUCGAGAAGGAACAUGAGGAUCACCCAUGUAGUAG [JR_Exclu4_Sub038] (puzzle: Exclusion 4)	–	–	–	22.7	19.1	21.3
AACUAGGCAGGAUAUACAUGAGGAUCACCCAUGUGCCGAUACAAAGGGACUAACAGAGGUAGAAGGGCCUAGAA [ChP 13.04.2015 #1] (puzzle: Exclusion 3)	–	–	–	36.2	100	47.8

Sequence	apparent KD of MS2 coat protein (input ligand: FMN 200 uM) [nM]	apparent KD of MS2 coat protein (input ligand: none) [nM]	apparent KD of MS2 coat protein [1] [nM]	apparent KD of MS2 coat protein [2] [nM]	apparent KD of MS2 coat protein [3] [nM]	apparent KD of MS2 coat protein [4] [nM]
GGCCCAUGAGGAUAUCAGUCUGGAUCAGACAAGAUCCUGACUGAGAAGGCACAUGAGGAUCACCCAUGUAGGCC [Mat - Exclusion 4 - Eli Mod - D53] (Eterna round: R97, puzzle: Exclusion 4)	18.3	18.7	–	–	–	–
AGCAUGCUAGGAUAUACGGGACAUUAGGGUUUGUCGUGUGGACAUGAGGAUCACCCAUGUAGAAGGAGCGUGCA [Mat - Exclusion 2 - Mod of Hyphema - D92] (puzzle: Exclusion 2)	–	–	–	46.5	–	–
AUUAAACAUGUAGGAUAUGCGUGGCGAAGCUAUGCAGAAGGACAUGAGGAUCACCCAUGUAAGAGCGUCUGCGUACAGAUGCAA [Mat - Exclusion NG 1 - Mod of JL - D85] (Eterna round: R96, puzzle: Exclusion NG 1)	563	61.5	36.6	–	–	–
UGCCGAUGAGGAUAUACAUUGAAUAAGAUUCAUGUAAAACUACAUGAGGAUCACCCAUGUAGAAGGCAUUGGCU [Mat - Exclusion 2 - JL Mod - D69] (Eterna round: R97, puzzle: Exclusion 2)	25.7	15.6	–	–	–	–
GUGAGAUAGUUAGUGGACGACAUGAGGAUCACCCAUGUGAGGGAAAUGUUAAGGAGAAAGCUUUUUGCUCGUCUUUA [JR_SV3TOV1_Sub035] (puzzle: Sensor v3, turn-off variant 1)	–	–	–	70.4	98.9	180
CUGCUGGAGCUUUGCUUUAGUCGUACAUGAGGAUCACCCAUGUAGGAUAUGGUAGGCUUUGCUUACUAGAAGGAUAGAGUGGUC [salish99_ExNG3_r04_606] (Eterna round: R96, puzzle: Exclusion NG 3)	226	62	66.6	–	–	–
GGCCCUAAGGUCAGAUCCACAAGCUUUUUGCUCGUUUUAACAUGAGGAUCACCCAUGUCUAGUGGAUCUGAUCCUCA [Sensor v3, turn-off variant 2 (MOD of Indiso v.3)] (puzzle: Sensor v3, turn-off variant 2)	–	–	–	12.1	16.9	20.8
ACUCUUCUAGUUAGGAUAUGCAUCGGGCUUCCGCAGCAGAAGGAACAUGAGGAUCACCCAUGUCAAAUAAAAUC (Eterna round: R97, puzzle: Brourd's mod of Exclusion 4)	34.8	20.6	–	–	–	–
GGAAGAAUGAGUAGUCCUCAUUGAAGAGAACAGUAAGAAACAUGAGGAUCACCCAUGUAAGAACAAGCUUUUGCUCA [JR_Sv3TOV2_Sub002] (puzzle: Sensor v3, turn-off variant 2)	–	–	–	699	168	259
UAAUGUAUAUAGGAUAUCUAGCUGGAAACAGCUAGAGAAGGAUGUACAUGAGGAUCACCCAUGUAAAUCAAUAA [Ex6/9-A1] (Eterna round: R97, puzzle: Exclusion 6)	57.5	19.5	–	–	–	–
CAUGUCCAACGAGGAUAUGGGAAAGGAAGUGUACCAGAAGGCGUACGGACAUGAGGAUCACCCAUGUCGCGCGGUGCGAUGUGG [MOD2 Nando EXNG 1.1] (Eterna round: R96, puzzle: Exclusion NG 1)	112	98.9	39.1	–	–	–
CACGAAUAGUGAGGAUAUGUGCGACAAAGUUGCACAGAAGGCACAUGAGGAUCACCCAUGUAAGCUAGGUCGAAAGACCUAGCG [Omei Exc(NG)1 A] (Eterna round: R96, puzzle: Exclusion NG 1)	37.4	24.2	15.3	–	–	–
CACAAGCUUUUUUGAUGCAUUUUAGUUGGUUGCCUUUUUACAUGAGGAUCACCCAUGUUUGUGUAGCUCGAUCUUUU [JR_SV3TOV2_Sub078] (puzzle: Sensor v3, turn-off variant 2)	–	–	–	29	36.5	41.2
GGAGGAGAGGUAAGGAUAUGGUGGUGGAAACACCACCAGAAGGUACAUGAGGAUCACCCAUGUAAGGAAGGAGG [AK-MS2ROC-r4-Bmoexclusion4-17.1] (Eterna round: R97, puzzle: Brourd's mod of Exclusion 4)	26.7	26.6	–	–	–	–
AAGAAACAUGAGGAUCACCCAUGUGAGGAUAUGGCCCGCCCGGCGUGAGCUGGUUUUAUCAGAAGGCACAAAGG [salish99_ex1_r4_015] (Eterna round: R97, puzzle: Exclusion 1)	39.4	44.6	–	–	–	–
CCGGAAUAGCAGGAUAUAGGAGUCGAUAGACACCUAGAAGGGUUGACAUGAGGAUCACCCAUGUGUCCUACCGG [Fiskers Ex 6 - 82] (puzzle: Exclusion 6)	–	–	–	247	322	519
